For 3 substances, invertase activity in mixed-extract assay, percent of the added value (1 mM sucrose; concentrated cell wall fraction of transgenic leaves), invertase activity in mixed-extract assay, percent of the added value (5 mM sucrose; concentrated cell wall fraction of infiltrated transgenic leaves) and invertase activity in mixed-extract assay, percent of the added value of the extracts incubated separately (5 mM sucrose, pH 4.5) results are on record in patent US20090293142A1.

Test [1] addresses invertase activity in the cell wall fraction of wild type tobacco leaves. Kind of test: cell-based or functional assay.
Test [2] addresses invertase activity in the soluble fraction of a leaf extract of a wild type plant. Nature of the test: cell-based or functional assay.

As for “tobacco apoplasmic invertase inhibitor (Greiner et al., 1998)”, in test [1], the invertase activity in mixed-extract assay, percent of the added value (1 mM sucrose; concentrated cell wall fraction of transgenic leaves) came to 58% and the invertase activity in mixed-extract assay, percent of the added value (5 mM sucrose; concentrated cell wall fraction of infiltrated transgenic leaves) was 70%.
Regarding “Arabidopsis thaliana vacuolar invertase inhibitor AtC/VIF1 (At1g47960) (from UniProt F4HWQ8 24-205)”, the invertase activity in mixed-extract assay, percent of the added value of the extracts incubated separately (5 mM sucrose, pH 4.5) in test [2] was determined as 79%.
“Arabidopsis thaliana cell wall invertase inhibitor AtC/VIF2 (At5g46940)” registered an invertase activity in mixed-extract assay, percent of the added value of the extracts incubated separately (5 mM sucrose, pH 4.5) in test [2] of 86%.
